Patent publication US20120207760A1
Where “and” joins values, the source holds several entries; their conditions need not be identical. Equal entries are not always repeated.

Tests used:
[1] = biological target: hemagglutinin (HA) on live influenza A virus A/California/4/09 H1N1 (Influenza A virus A/California/04/2009 (H1N1)); assay: cell-based or functional assay
[2] = biological target: hemagglutinin (HA) on live influenza A virus A/Solomon Islands/3/06 H1N1 (Influenza A virus A/Solomon Islands/3/2006 (H1N1)); assay: cell-based or functional assay
[3] = biological target: hemagglutinin (HA) on live influenza A virus A/Wisconsin/67/05 H3N2 (Influenza A virus A/Wisconsin/67/2005 (H3N2)); assay: cell-based or functional assay
[4] = biological target: recombinant homotrimeric HA, A/Anhui/1/05 H5N1 (Influenza A virus A/Anhui/1/05 (H5N1)); assay: trimeric HA microarray, transfection set 1
[5] = biological target: recombinant homotrimeric HA, A/California/4/09 H1N1 (Influenza A virus A/California/4/09 (H1N1)); assay: trimeric HA microarray, transfection set 1
[6] = biological target: recombinant homotrimeric HA, A/Egypt/3300-NAMRU3/08 H5N1 (Influenza A virus A/Egypt/3300-NAMRU3/08 (H5N1)); assay: trimeric HA microarray, transfection set 1
[7] = biological target: recombinant homotrimeric HA, A/Hong Kong/1073/99 H9N2 (Influenza A virus A/Hong Kong/1073/99 (H9N2)); assay: trimeric HA microarray, transfection set 1
[8] = biological target: recombinant homotrimeric HA, A/Hong Kong/2108/03 H9N2 (Influenza A virus A/Hong Kong/2108/03 (H9N2)); assay: trimeric HA microarray, transfection set 1
[9] = biological target: recombinant homotrimeric HA, A/Indonesia/5/05 H5N1 (Influenza A virus A/Indonesia/5/05 (H5N1)); assay: trimeric HA microarray, transfection set 1
[10] = biological target: recombinant homotrimeric HA, A/Japan/305/57 H2N2 (Influenza A virus A/Japan/305/57 (H2N2)); assay: trimeric HA microarray, transfection set 1
[11] = biological target: recombinant homotrimeric HA, A/Netherlands/219/03 H7N7 (Influenza A virus A/Netherlands/219/03 (H7N7)); assay: trimeric HA microarray, transfection set 1
[12] = biological target: recombinant homotrimeric HA, A/Solomon Islands/3/06 H1N1 (Influenza A virus A/Solomon Islands/3/06 (H1N1)); assay: trimeric HA microarray, transfection set 1
[13] = biological target: recombinant homotrimeric HA, A/South Carolina/1/18 H1N1 (Influenza A virus A/South Carolina/1/18 (H1N1)); assay: trimeric HA microarray, transfection set 1
[14] = biological target: recombinant homotrimeric HA, A/Vietnam/1203/04 H5N1 (Influenza A virus A/Vietnam/1203/04 (H5N1)); assay: trimeric HA microarray, transfection set 1
[15] = biological target: recombinant homotrimeric HA, A/Wisconsin/67/05 H3N2 (Influenza A virus A/Wisconsin/67/05 (H3N2)); assay: trimeric HA microarray, transfection set 1
[16] = biological target: recombinant homotrimeric HA, A/chicken/Vietnam/NCVD-016/08 H5N1 (Influenza A virus A/chicken/Vietnam/NCVD-016/08 (H5N1)); assay: trimeric HA microarray, transfection set 1
[17] = biological target: recombinant homotrimeric HA, A/common magpie/Hong Kong/5052/07 H5N1 (Influenza A virus A/common magpie/Hong Kong/5052/07 (H5N1)); assay: trimeric HA microarray, transfection set 1
[18] = biological target: recombinant homotrimeric HA, A/duck/Yangzhou/02/05 H8N4 (Influenza A virus A/duck/Yangzhou/02/2005 (H8N4)); assay: trimeric HA microarray, transfection set 1
[19] = biological target: recombinant homotrimeric HA, A/northern shoveler/California/HKWF115/07 (Influenza A virus A/northern shoveler/California/HKWF115/2007 (H6N1)); assay: trimeric HA microarray, transfection set 1
[20] = biological target: recombinant homotrimeric HA, A/swine/Ontario/01911-2/99 H4N6 (Influenza A virus A/swine/Ontario/01911-2/99 (H4N6)); assay: trimeric HA microarray, transfection set 1
[21] = biological target: recombinant soluble homotrimeric HA of A/Anhui/1/05 - H5N1 (Influenza A virus A/Anhui/1/2005 (H5N1)); assay: micro-array; captured IgG, V5-tagged trimeric HA
[22] = biological target: recombinant soluble homotrimeric HA of A/Egypt/3300-NAMRU3/08 - H5N1 (Influenza A virus A/Egypt/3300-NAMRU3/2008 (H5N1)); assay: micro-array; captured IgG, V5-tagged trimeric HA
[23] = biological target: recombinant soluble homotrimeric HA of A/Hong Kong/156/97 - H5N1 (Influenza A virus A/Hong Kong/156/97 (H5N1)); assay: micro-array; captured IgG, V5-tagged trimeric HA
[24] = biological target: recombinant soluble homotrimeric HA of A/Netherlands/219/03 - H7N7 (Influenza A virus A/Netherlands/219/03 (H7N7)); assay: micro-array; captured IgG, V5-tagged trimeric HA
[25] = biological target: recombinant soluble homotrimeric HA of A/chicken/Vietnam/NCVD-016/08 - H5N1 (Influenza A virus A/chicken/Vietnam/NCVD-016/2008 (H5N1)); assay: micro-array; captured IgG, V5-tagged trimeric HA
[26] = biological target: recombinant soluble homotrimeric HA of A/duck/Yangzhou/02/2005 - H8N4 (Influenza A virus A/duck/Yangzhou/02/2005 (H8N4)); assay: micro-array; captured IgG, V5-tagged trimeric HA
[27] = biological target: recombinant soluble homotrimeric HA of A/northern shoveler/California/HKWF115/2007 - H6N1 (Influenza A virus A/northern shoveler/California/HKWF115/2007 (H6N1)); assay: micro-array; captured IgG, V5-tagged trimeric HA
[28] = biological target: hemagglutinin (HA) of influenza A/Solomon Islands/3/06 H1N1 (Influenza A virus A/Solomon Islands/3/2006 (H1N1)); assay: ELISA, inactivated whole virions coated; transfection supernatant set 1
[29] = biological target: hemagglutinin (HA) of influenza A/Wisconsin/67/05 H3N2 (Influenza A virus A/Wisconsin/67/2005 (H3N2)); assay: as above
[30] = biological target: hemagglutinin (HA) of influenza A/Wisconsin/67/05 H3N2 (Influenza A virus A/Wisconsin/67/2005 (H3N2)); assay: ELISA, inactivated whole virions coated; transfection supernatant set 2
[31] = biological target: hemagglutinin (HA) of influenza A/Solomon Islands/3/06 H1N1 (Influenza A virus A/Solomon Islands/3/2006 (H1N1)); assay: ELISA, inactivated whole virions coated; transfection supernatant set 5
[32] = biological target: hemagglutinin (HA) of influenza A/Wisconsin/67/05 H3N2 (Influenza A virus A/Wisconsin/67/2005 (H3N2)); assay: as above

TCN-202 (2N9) (antibody)
% Neutralization [1]: 0%
% Neutralization [2]: 0% and 7%
% Neutralization [3]: 17.8% and 0%
Trimeric HA Binding RLU [4]: 20 RLU
Trimeric HA Binding RLU [5]: 20 RLU
Trimeric HA Binding RLU [6]: 76 RLU
Trimeric HA Binding RLU [7]: 21 RLU
Trimeric HA Binding RLU [8]: 24 RLU
Trimeric HA Binding RLU [9]: 57 RLU
Trimeric HA Binding RLU [10]: 27 RLU
Trimeric HA Binding RLU [11]: 55 RLU
Trimeric HA Binding RLU [12]: 67 RLU
Trimeric HA Binding RLU [13]: 32 RLU
Trimeric HA Binding RLU [14]: 37 RLU
Trimeric HA Binding RLU [15]: 27 RLU
Trimeric HA Binding RLU [16]: 14 RLU
Trimeric HA Binding RLU [17]: 21 RLU
Trimeric HA Binding RLU [18]: 26 RLU
Trimeric HA Binding RLU [19]: 13 RLU
Trimeric HA Binding RLU [20]: 29 RLU
Trimeric HA Binding: RLU [21]: 10000 RLU
Trimeric HA Binding: RLU [22]: 13900 RLU
Trimeric HA Binding: RLU [23]: 945 RLU
Trimeric HA Binding: RLU [24]: 18000 RLU
Trimeric HA Binding: RLU [25]: 2570 RLU
Trimeric HA Binding: RLU [26]: 13800 RLU
Trimeric HA Binding: RLU [27]: 3040 RLU
OD450 [28]: 0.07 OD450
OD450 [29]: 0.07 OD450
OD450 [30]: 0.07 OD450
OD450 [31]: 0.07 OD450
OD450 [32]: 0.07 OD450
